Data reported in patent US6017747A, “Nucleic acids encoding a collagenase” (The Regents of the University of California, priority 1997, dated 2000).

B1: Trypsin: Recombinant rat trypsin purified by published techniques (protein, UniProt P00763 24-246, looked up)
Anionic trypsin-2: IVGGYTCQENSVPYQVSLNSGYHFCGGSLINDQWVVSAAHCYKSRIQVRLGEHNINVLEGNEQFVNAAKIIKHPNFDRKTLNNDIMLIKLSSPVKLNARVATVALPSSCAPAGTQCLISGWGNTLSSGVNEPDLLQCLDAPLLPQADCEASYPGKITDNMVCVGFLEGGKDSCQGDSGGPVVCNGELQGIVSWGYGCALPDNPGVYTKVCNYVDWIQDTIAAN

Tests used:
[1] = Steady state kinetics versus the Suc-AAP-Xaa-pNA substrate set; format: biochemical; conditions: for r of correlation for log kcat or log (kcat /Km) versus P1 residue volume: Val and Ile omitted for chymotrypsin, Nva and Leu deleted for elastase; for correlation of log (kcat /Km) with π: hydrophobicity constant π
Experimental: Recombinant rat trypsin was purified by published techniques. Other reagents were purchased from the following sources: TLCK treated bovine chymotrypsin (Sigma), porcine elastase (Calbiochem), bovine calf skin collagen (US Biochemical), Suc-AAPAbu-pNA (Bachem of California) and Z-GPR-Sbzl (Enzyme Systems Products). All other substrates were from Bachem Bioscience. All enzyme active site titrations, substrate calibrations, kinetic assays and collagen digestions were carried out by conventional methods. Briefly, pNA kinetic assays were monitored at 410 nm (E410 =8,480 M^-1 cm^-1) in 50 mM Tris, 100 mM NaCl, 20 mM CaCl2, pH 8.0 at 25° C. 1 to 4% DMF or 2% Me2 SO was present in the final reaction buffer. Benzylthioester kinetic assays were monitored at 324 nm (E324 =19,800 M^-1 cm^-1) in the above buffer at 25° C. with the inclusion of 250 μM dithiodipyridine (Chemical Dynamics) and 2% DMF. AMC spectrofluorimetric assays were monitored at an excitation wavelength of 380 nm and an emission wavelength of 460 nm, under conditions identical to those for pNA. Assays were done in duplicate for 5 substrate concentrations, except for Suc-AAP-Asp-pNA, for which the kcat /Km was determined using 3 substrate concentrations in duplicate. The steady state kinetic parameters were determined by non-linear regression fit to the Michaelis Menten equation. Standard deviation in kcat /Km was generally less than 10%, though individual rate and binding constants varied to a greater extent. […] Kinetic parameters were plotted versus P1 residue volume and the hydrophobicity constant, π.
The Michaelis constants of the recombinant collagenase were determined for a matched set of 15 Suc-AAP-Xaa-pNA substrates, varying only in the P1 residue. […] The remaining 10 substrates Ala, Abu (2-aminobutyric acid), Nva (norvaline), Val, Nle (norleucine), Ile, Met, Orn (ornithine), Asp and Glu were selected to more fully map the specificity of crab collagenase for hydrophobic, basic and acidic residues. The substrate preference of the collagenase is quite broad. […] Acidic residues are generally poor substrates. […] This implies the existence of several distinct S1 sites or a single flexible site. […] The correlation is improved and slope essentially unchanged if only the hydrophobic residues Ala, Abu (2-aminobutyric acid), Nva (norvaline), Nle (norleucine), Leu, Met and Phe are included. […] It is unclear how the enzyme binds the neutral hydrophilic and basic residues so as to minimize the effects of charge or polarity in the transition state. Bias or insensitivity in the data set may also affect the interpretation of the correlations.
The steady state kinetic parameters of chymotrypsin and elastase versus the Suc-AAP-Xaa-pNA substrate set were determined under conditions identical to those for crab collagenase. This was necessary in order to accurately compare the activities of these different enzymes.

[2] = Single residue versus peptidyl P1-Ala substrate efficiency; format: biochemical
Experimental: (§1) Recombinant rat trypsin was purified by published techniques. Other reagents were purchased from the following sources: TLCK treated bovine chymotrypsin (Sigma), porcine elastase (Calbiochem), bovine calf skin collagen (US Biochemical), Suc-AAPAbu-pNA (Bachem of California) and Z-GPR-Sbzl (Enzyme Systems Products). All other substrates were from Bachem Bioscience. All enzyme active site titrations, substrate calibrations, kinetic assays and collagen digestions were carried out by conventional methods. Briefly, pNA kinetic assays were monitored at 410 nm (E410 =8,480 M^-1 cm^-1) in 50 mM Tris, 100 mM NaCl, 20 mM CaCl2, pH 8.0 at 25° C. 1 to 4% DMF or 2% Me2 SO was present in the final reaction buffer. Benzylthioester kinetic assays were monitored at 324 nm (E324 =19,800 M^-1 cm^-1) in the above buffer at 25° C. with the inclusion of 250 μM dithiodipyridine (Chemical Dynamics) and 2% DMF. AMC spectrofluorimetric assays were monitored at an excitation wavelength of 380 nm and an emission wavelength of 460 nm, under conditions identical to those for pNA. Assays were done in duplicate for 5 substrate concentrations, except for Suc-AAP-Asp-pNA, for which the kcat /Km was determined using 3 substrate concentrations in duplicate. The steady state kinetic parameters were determined by non-linear regression fit to the Michaelis Menten equation. […]

recombinant collagenase = target: T1, recombinant collagenase (Leptuca pugilator, UniProt P00771); experiment: Inhibition of collagenolytic activity of recombinant collagenase; format: biochemical, Uca pugilator; conditions: recombinant enzyme
T1 construct: the mature form of the cloned collagenase (illustrated in the boxed section) has 226 amino acid residues; made in house; host or cells: Saccharomyces cerevisiae (strain AB110 or DM101α), PyFC vector
T1 sequence (P00771 1-226 V95S): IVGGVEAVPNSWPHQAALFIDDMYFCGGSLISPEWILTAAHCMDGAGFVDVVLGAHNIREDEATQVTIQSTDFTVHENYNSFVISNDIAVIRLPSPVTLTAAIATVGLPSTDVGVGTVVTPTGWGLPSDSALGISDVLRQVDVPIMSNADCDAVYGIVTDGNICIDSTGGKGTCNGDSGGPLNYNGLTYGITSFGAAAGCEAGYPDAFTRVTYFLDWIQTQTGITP
Source text: The collagenolytic activity of the recombinant collagenase was compared directly to that of the endogenous enzyme isolated from the crab hepatopancreas. The specificity and rate of collagen cleavage are similar.

[3] = single residue esters; cited from earlier work
[4] = Single residue versus peptidyl P1-Phe substrate efficiency; format: biochemical
Experimental: as §1

[5] = Single residue versus peptidyl P1-Arg substrate efficiency; format: biochemical
Experimental: as §1

Molecule	correlation for log kcat or log (kcat /Km) versus P1 residue volume [1]	correlation of Km versus volume [1]	sensitivity of log (kcat /Km) to residue volume [1]	r of correlation for log kcat or log (kcat /Km) versus P1 residue volume [1]	correlation of log (kcat /Km) with π [1]	kcat /Km differential, single residue versus peptidyl substrate [2]	inhibition of collagenolytic activity (recombinant collagenase)	slope of correlation of log (k2 /KS) with π [3]	kcat /Km differential, single residue versus peptidyl substrate [4]	kcat /Km differential, single residue versus peptidyl substrate [5]
elastase: porcine elastase (Calbiochem)	negative	much weaker	twice that of collagenase	≤ 0.95	correlated well, with a slope equal and opposite that for chymotrypsin	100,000 fold	–	–	–	–
NCCc1ccc(S(=O)(=O)F)cc1 [AEBSF]	–	–	–	–	–	–	completely inhibited	–	–	–
Chymotrypsin	Strong positive	tight negative correlation	twice that of collagenase	≤ 0.95	also correlated with π	–	–	2.2	10,000 fold	–
B1	–	–	–	–	–	–	–	–	–	100 fold
